Experimental findings from US20260146107A1 (ALLIGATOR BIOSCIENCE, published 2026) are described below.

A word on the Kd: it is the equilibrium constant for the complex coming apart. Broadly, the koff is the first-order rate constant of dissociation. The kon is the second-order rate constant of association. As a reminder, the EC50 (read off the curve) is the concentration that produces a half-maximal response.

To fix the notation:
B1: AC_05064 (antibody, human IgG1, kappa, V domains shown)
VH: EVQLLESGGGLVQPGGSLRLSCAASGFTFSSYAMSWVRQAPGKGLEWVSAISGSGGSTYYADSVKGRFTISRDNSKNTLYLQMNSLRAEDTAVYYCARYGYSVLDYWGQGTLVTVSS
VL: DIQMTQSPSSLSASVGDRVTITCRASQSISSYLNWYQQKPGKAPKLLIYAASSLQSGVPSRFSGSGSGTDFTLTISSLQPEDFATYYCQQYPWYFPYTFGQGTKLEIKR
B2: AC_05060 (antibody, human IgG1, kappa, V domains shown)
VH: EVQLLESGGGLVQPGGSLRLSCAASGFTFGSYYMSWVRQAPGKGLEWVSGISGYGYYTGYADSVKGRFTISRDNSKNTLYLQMNSLRAEDTAVYYCARHGYGVIDYWGQGTLVTVSS
VL: DIQMTQSPSSLSASVGDRVTITCRASQSIRDYLNWYQQKPGKAPKLLIYAASSLQSGVPSRFSGSGSGTDFTLTISSLQPEDFATYYCQQGTFPFTFGQGTKLEIKR
B3: AC_05061 (antibody, human IgG1, kappa, V domains shown)
VH: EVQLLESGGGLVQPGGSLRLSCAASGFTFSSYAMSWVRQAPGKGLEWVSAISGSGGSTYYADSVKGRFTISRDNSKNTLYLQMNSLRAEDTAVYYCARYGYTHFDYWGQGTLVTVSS
VL: DIQMTQSPSSLSASVGDRVTITCRASQSISSYLNWYQQKPGKAPKLLIYAASSLQSGVPSRFSGSGSGTDFTLTISSLQPEDFATYYCQQGAYVPYTFGQGTKLEIKR
B4: AC_05062 (antibody, human IgG1, kappa, V domains shown)
VH: not shown
VL: B3 VL with S28A, S31G, A50S, G91S, A92Y, Y93S, V94T
B5: Multi39 (bispecific antibody)
heavy 1: not shown
light: not shown
heavy 2: EVQLLESGGGLVQPGGSLRLSCAASGFTFYDHAMSWVREAPGKGLEWVSAISGSYGSTGYADSVKGRFTISRDNSKNTLYLQMNSLRAEDTAVYYCARWGGWAGDIDYWGQGTLVTVSSASTKGPSVFPLAPSSKSTSGGTAALGCLVKDYFPEPVTVSWNSGALTSGVHTFPAVLQSSGLYSLTSVVEVPSSSLGTQTYICNVNHKPSNTKVDKKVEPKSC
notes: Optimised RUBY format, CD40xCEACAM5; copies: 2 + 2 + 2

Numbering of substitutions follows the chain as printed.

One test concerns the target T1, human CEACAM1 expressed on CHO cells (human, UniProt P13688 35-526).
T1 construct: whole, on cells; also called CHO-CEACAM1; CEACAM1 on cells
T1 sequence (looked up): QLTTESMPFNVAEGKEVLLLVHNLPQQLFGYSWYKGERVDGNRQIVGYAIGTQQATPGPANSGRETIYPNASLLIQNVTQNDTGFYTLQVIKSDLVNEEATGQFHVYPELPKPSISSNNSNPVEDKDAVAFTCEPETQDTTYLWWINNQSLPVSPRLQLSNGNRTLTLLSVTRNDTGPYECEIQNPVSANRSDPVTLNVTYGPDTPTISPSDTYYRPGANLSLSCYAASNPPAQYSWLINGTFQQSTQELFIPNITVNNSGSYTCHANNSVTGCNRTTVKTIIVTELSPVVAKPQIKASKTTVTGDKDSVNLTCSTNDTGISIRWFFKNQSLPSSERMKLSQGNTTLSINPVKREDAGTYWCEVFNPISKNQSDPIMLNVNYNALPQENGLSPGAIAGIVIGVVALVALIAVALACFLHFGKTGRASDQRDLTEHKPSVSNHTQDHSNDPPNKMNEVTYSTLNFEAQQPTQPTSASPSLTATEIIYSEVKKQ
As to the kind of experiment: flow cytometry, transfected CHO cells, IgG1. An excerpt:
Binding of the antibodies was detected using fluorochrome-conjugated anti-human IgG and analysed using flow cytometry.
For orientation: In flow cytometry, cells or beads pass a laser one at a time.
As for B1, the binding result was “no binding (tested: 0.5 and 5 µg/ml)”.
On the same count and under the same terms, the result for B2 reads “no binding (tested: 0.5 and 5 µg/ml)”; that for B3, “no binding (tested: 0.5 and 5 µg/ml)”; that for B4, “no binding (tested: 0.5 and 5 µg/ml)”.

Another test has as its target T2, human CEACAM1, recombinant (R&D Systems #2244-CM-050) (human, UniProt P13688 35-428).
T2 construct: also called hCEACAM-1
T2 sequence (looked up): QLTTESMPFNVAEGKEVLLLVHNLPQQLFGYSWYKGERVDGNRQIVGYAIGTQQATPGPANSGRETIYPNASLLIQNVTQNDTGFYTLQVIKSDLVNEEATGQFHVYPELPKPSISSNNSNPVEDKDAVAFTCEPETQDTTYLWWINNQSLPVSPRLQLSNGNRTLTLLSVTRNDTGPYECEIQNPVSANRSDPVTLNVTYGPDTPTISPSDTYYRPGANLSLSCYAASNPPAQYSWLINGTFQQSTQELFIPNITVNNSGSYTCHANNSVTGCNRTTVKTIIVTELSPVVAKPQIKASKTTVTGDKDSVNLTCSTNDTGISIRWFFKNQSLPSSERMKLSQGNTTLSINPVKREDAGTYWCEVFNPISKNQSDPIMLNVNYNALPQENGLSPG
As to the kind of experiment: ELISA, cross-reactivity to other CEA family members. As to the method: (§1) 96-well plates were coated with 0.5 μg/mL antigen, hCEACAM-5 (4128-CM-050, R&D Systems), hCEACAM-1 (2244-CM-050, R&D Systems), hCEACAM-6(3934-CM-050, R&D Systems) or CEACAM-8 (9639-CM-050, R&D Systems) in PBS over night at 4° C. After washing with PBS/0.05% Tween 20 (PBST), the plates were blocked with PBST, 2% BSA for at least 30 minutes at room temperature before a second round of washing. […] After washing, plates were incubated with 50 μl detection antibody (0.5 μg/ml HRP conjugated goat anti human-kappa light chain, #STAR127P, AbD Serotec). Finally, a final round of washing was performed and bound complexes detected using SuperSignal Pico Luminescent as substrate and luminescence signals were measured using Fluostar Optima.
A general note: In an ELISA, binding on a coated surface is turned into a signal by an enzyme label.
Take B1: the binding result is recorded as “no binding (tested: 0.4 µg/ml)”.
On the same count and under the same terms, the result for B2 reads “no binding (tested: 0.4 µg/ml)”; that for B3, “no binding (tested: 0.4 µg/ml)”; that for B4, “no binding (tested: 0.4 µg/ml)”.

The target in another test is T3, human CEACAM6, recombinant (R&D Systems #3934-CM-050) (human, UniProt P40199 35-320).
T3 construct: also called hCEACAM-6
T3 sequence (looked up): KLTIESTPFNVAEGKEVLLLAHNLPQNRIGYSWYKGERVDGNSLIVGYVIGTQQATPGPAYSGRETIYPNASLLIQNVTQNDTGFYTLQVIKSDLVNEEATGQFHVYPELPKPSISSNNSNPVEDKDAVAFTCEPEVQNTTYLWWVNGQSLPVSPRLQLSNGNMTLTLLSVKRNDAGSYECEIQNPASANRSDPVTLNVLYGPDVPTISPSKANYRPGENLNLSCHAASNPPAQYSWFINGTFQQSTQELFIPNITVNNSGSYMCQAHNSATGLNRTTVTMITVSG
Described as above. As to the method: as §1
For the molecule B1, the binding result is “no binding (tested: 0.4 µg/ml)”.
With B2, the binding result was “no binding (tested: 0.4 µg/ml)”.
Still for that read-out and setting: the result for B3 reads “no binding (tested: 0.4 µg/ml)”; that for B4, “no binding (tested: 0.4 µg/ml)”.

A further test has as its target T4, CEACAM-8, recombinant (R&D Systems #9639-CM-050) (UniProt P31997 35-320).
T4 sequence (looked up): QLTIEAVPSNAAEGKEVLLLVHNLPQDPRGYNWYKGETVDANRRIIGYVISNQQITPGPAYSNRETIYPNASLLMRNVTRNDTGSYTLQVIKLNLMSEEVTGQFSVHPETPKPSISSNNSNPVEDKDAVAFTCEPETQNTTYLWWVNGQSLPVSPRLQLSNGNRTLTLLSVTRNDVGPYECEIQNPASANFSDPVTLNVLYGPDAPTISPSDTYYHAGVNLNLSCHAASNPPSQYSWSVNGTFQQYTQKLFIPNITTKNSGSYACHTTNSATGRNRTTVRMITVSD
Described as above. As to the method: as §1
Take B1: the binding result is given as “no binding (tested: 0.4 µg/ml)”.
B2: the binding result was “no binding (tested: 0.4 µg/ml)”.
Same read-out and setting: to B3 belongs “no binding (tested: 0.4 µg/ml)”; to B4, “no binding (tested: 0.4 µg/ml)”.

A further test addresses T5, human CEACAM5, recombinant (R&D Systems #4128-CM-050) (human, UniProt P06731 35-685).
T5 construct: Bought; coated in ELISA and used as monomeric analyte in Octet; also called hCEACAM-5; Human CEACAM5-His; not shown: His tag
T5 sequence (looked up): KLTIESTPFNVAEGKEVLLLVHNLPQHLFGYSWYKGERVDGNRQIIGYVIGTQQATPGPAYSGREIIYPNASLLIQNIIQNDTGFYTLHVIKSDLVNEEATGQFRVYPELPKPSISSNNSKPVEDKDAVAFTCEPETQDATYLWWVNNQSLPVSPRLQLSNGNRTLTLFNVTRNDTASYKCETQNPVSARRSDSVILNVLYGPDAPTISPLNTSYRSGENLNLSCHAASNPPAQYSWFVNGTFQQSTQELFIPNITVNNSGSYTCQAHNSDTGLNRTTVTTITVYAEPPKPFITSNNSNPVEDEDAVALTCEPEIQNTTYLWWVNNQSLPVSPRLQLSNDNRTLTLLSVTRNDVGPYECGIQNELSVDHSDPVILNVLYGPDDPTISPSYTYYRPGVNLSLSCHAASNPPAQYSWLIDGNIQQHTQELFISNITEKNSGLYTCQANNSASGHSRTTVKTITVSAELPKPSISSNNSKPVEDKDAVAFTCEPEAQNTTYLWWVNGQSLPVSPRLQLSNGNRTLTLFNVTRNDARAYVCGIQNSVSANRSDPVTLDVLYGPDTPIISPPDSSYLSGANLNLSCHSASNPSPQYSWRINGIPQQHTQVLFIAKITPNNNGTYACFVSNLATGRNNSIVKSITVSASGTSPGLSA
Nature of the test: Octet BLI, IgG1 captured on AHC tips, CEACAM5-His in solution, 1:1 fit. As to the method: Kinetic measurements were performed in the Octet RED96 platform using several different setups. Monoclonal antibodies (listed in Table 9), serially diluted ½ starting at 100 nM, were captured to anti human IgG Fc Capture (AHC) Biosensor tips (Sartorius #18-5060). Human CEACAM5-His (R&D Systems #4128-CM-050) diluted in 1× kinetic buffer (Sartorius) at 100 nM was then added. Binding kinetics was studied in 1× kinetic buffer where association was allowed for 300 sec followed by dissociation for 600 sec. Sensor tips were regenerated with 10 mM Glycine pH 1.7. Data generated were referenced by subtracting blank or parallel buffer blank, the baseline was aligned to the y-axis, inter-step correction by alignment against dissociation was performed and the data was smoothed by Savitzky-Golay filter in the data analysis software (v9.0.0.14). The processed data was fitted using a 1:1 Langmuir binding model with R² or X² as a measurement of fitting accuracy.
On the technique in general: In BLI a coated tip is dipped into the sample, and binding shifts an interference pattern.
On to B1, for which the equilibrium dissociation constant (Kd) was 0.4 nM, the koff came out at 6e-05 s⁻¹ and the kon is 100000 M⁻¹ s⁻¹.
In the same order, the values of B2 are 6 nM, 0.002 s⁻¹ and 400000 M⁻¹ s⁻¹.
The corresponding values for B3 are 20 nM, 0.002 s⁻¹ and 100000 M⁻¹ s⁻¹.
In the same order, the values of B4 are 0.9 nM, 0.002 s⁻¹ and 2e+06 M⁻¹ s⁻¹.

In another test the target is T5, human CEACAM5, recombinant (R&D Systems …). Nature of the test: ELISA, antigen coated at 0.5 µg/mL, bsAb titrated, anti-human kappa-HRP, luminescence. As to the method:
(§2) 96-well plates were coated with 0.5 μg/mL antigen, hCEACAM-1 (2244-CM-050, R&D Systems), hCEACAM-5 (4128-CM-050, R&D Systems), hCEACAM-6 (3934-CM-050, R&D Systems) or CEACAM-8 (9639-CM-050, R&D Systems) in PBS over night at 4° C. After washing in PBS/0.05% Tween 20 (PBST), the plates were blocked with PBST, 2% BSA for at least 30 minutes at room temperature before a second round of washing. RUBY bsAbs, diluted in PBST, 0.5% BSA, were then added and allowed to bind for at least 1 hour at room temperature. […] Finally, a final round of washing was performed and bound complexes detected using SuperSignal Pico Luminescent as substrate and luminescence signals were measured using Fluostar Optima.
As to B5, the “EC50 (read off the curve)” value is around 1 nM.

A further test has the same target. Nature of the test: dual-target ELISA: hCEACAM-5 coated, bsAb titrated, detected with biotinylated hCD40-muIg and streptavidin-HRP, luminescence; signal needs both targets bound. As to the method: as §2
In the case of B5, the “EC50 (read off the curve)” value is around 3 nM.

The target of the next test is T6, biotinylated human CD40-mouse Fc (Ancell #504-030) (human, UniProt P25942 21-193, biotinylated (site not stated)).
T6 construct: Bought; also called hCD40-muIg; CD40mFc-biotin; not shown: mouse Ig Fc
T6 sequence (P25942 21-193): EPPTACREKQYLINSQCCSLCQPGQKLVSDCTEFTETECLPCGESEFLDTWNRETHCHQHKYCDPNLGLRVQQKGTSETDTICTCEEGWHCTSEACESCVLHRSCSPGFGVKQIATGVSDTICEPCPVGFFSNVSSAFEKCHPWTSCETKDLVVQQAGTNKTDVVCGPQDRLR
Described as above. As to the method:
as §2
As for B5, the binding result is “binds”.
